Laboratory results as given in the supplement of paper PMC9170038.

Tested on: K4 kissing-loop RNA reporter
Assay: apparent KD of K4 kissing-loop reporter; higher = weaker reporter binding
Settings: Eterna round: R107
Description: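 RNA-MaP round R107: designed RNA switches with theophylline, tryptophan, arginine or FMN aptamers are transcribed on-chip within common flanks. They are titrated with a labelled K4 kissing-loop RNA reporter in RNA-MaP buffer (100 mM Tris pH 7.5, 80 mM KCl, 4 mM MgCl2), without ligand or with the indicated ligand. Median apparent KD per design.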

[1] = input ligand: theophylline 20 uM
[2] = input ligand: tryptophan 2.4 mM
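Note: bound reporter read as fluorescence of individual clusters on recovered sequencing chips by microscopy, with normalized cluster intensities fitted with a binding model.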

Sequence	apparent KD of K4 kissing-loop reporter (input ligand: FMN 200 uM)	apparent KD of K4 kissing-loop reporter (input ligand: arginine 13.2 mM)	apparent KD of K4 kissing-loop reporter (input ligand: none)	apparent KD of K4 kissing-loop reporter [1]	apparent KD of K4 kissing-loop reporter [2]
AUUGUAUACUGAAGGAGCGAGUAGUGGAAACAUAAACUCAUUGCGAGUGAUGUUCGCAGUACUCAGGUAGGUCGCAGUAAUGGUA [Exclusion Arginine B Gf 9]	0.756 µM	0.167 µM	0.528 µM	0.242 µM	0.451 µM
AUUUAAUGUAUAGAUUAUAUACAUUAUUCAGAGGAUAUGCAUUGAAGCAGAAGGCUGGAUGUAGUGAUGUUGCAAUUUUAAUUUA [JR_SSFMNA_Sub007]	0.205 µM	0.247 µM	0.218 µM	0.299 µM	0.143 µM
AUUUAUUCGAGUGAUGUUCGUGUUUUUUCAGAGGAUAUGCGUAAUAGCAGAAGGCUGUUUUAUAUUAUAUUUUGAUUUUUUUAAA [JR_Nu_ExcFMNA_Sub025]	0.0922 µM	0.123 µM	0.0861 µM	0.106 µM	0.0735 µM
AUUUGCUAGAAAGGAUAUAUUAGCUUGGUCACCGCGUCCGAUGGUUAAACUUCGUGAGUGAUGUUCAUAGAAGGUUCAGCCUCGA [theeternabot_exclusion_KL_FMN_B_20]	0.155 µM	0.122 µM	0.146 µM	0.138 µM	0.124 µM
AUUUUAAUCGCAGAUACCAGUCCAGAAUGAAUACUAUAGUGAUGUUAUAAUAAAGGGAAGGACCCUUGGCAGCUGUACUAUAUUA [AstrosSsTheB#9]	0.467 µM	0.287 µM	0.445 µM	0.304 µM	0.281 µM
AUUUUAGAGUGAUGUUCUAAUUGAUCAGAUACCAGACAAUUAUAAGUCCCUUGGCAGCUGUAGCCGAUAAAUUUAUUUAAUUUAA [JR_SSTheophyA_Sub024]	0.229 µM	0.275 µM	0.302 µM	0.373 µM	0.225 µM
AUUUUAGAGUGAUGUUCUAUUUGAUCAGAUACCAGACAAUUAUAAGUCCCUUGGCAGCUGUAGCCGAUAAAUUUAAUUAAUUUAA [JR_ExcTheophyA_Sub012]	0.132 µM	0.223 µM	0.158 µM	0.205 µM	0.13 µM
AUUUUUUUAUCAGGAUAUUAGUGAUGGUUUUUUUUGUUAGUGAUGUUGAUAUUUGUUUUAUGUAUUUAAGAAGGGAUUGAGAUGU [tzzsullin]	0.12 µM	0.0412 µM	0.0569 µM	0.0644 µM	0.0842 µM
AUUUUUUUGUCAGGAUAUUAGUGUUGGUUUGGUUUGUUAGUGAUGUUGAUAUUUGUUUUAUGUAUUUAAGAAGGGAUUUAGAUGU [zaahullin]	0.428 µM	0.33 µM	0.335 µM	0.407 µM	0.293 µM
CAAUGAGUAUAAGAUGAUAUCAUCACAGAAGGAGCGAGUGAUAACUCAGGUAGGUCGCUGAAUUUGUCGAGUGAUGUUCGAUAGA [whbob_SS_Arginine_A_sa119]	0.209 µM	0.173 µM	0.204 µM	0.188 µM	0.182 µM
CAAUGAGUUUAAGAUGAUAUCAUCACAGAAGGAGCGAGUGAUAACUCAGGUAGGUCGCUGAAUUUGUCGAGUGAUGUUCGAUAGA [whbob_SS_Arginine_A_sa120]	0.191 µM	0.153 µM	0.186 µM	0.166 µM	0.174 µM
CACCCUGGACAAGGAUAUAUCAUGCGCCAAGGGCAGUGAUGUUGCCACAGGCUUGGGUCCAGUUCGAUAGAAGGUGUCUGGUAUU [theeternabot_sameState_KL_FMN_B_4]	0.203 µM	0.174 µM	0.244 µM	0.159 µM	0.183 µM
CACGAUGAAUUCUCUAGGAGUGAUGUUUUUCGAGGACCGGUACGGCCGCCACUCGGACCACGAGCGUGGUAGCGGCGAAAAGACU [qpmullin]	0.782 µM	0.464 µM	0.629 µM	0.443 µM	1.07 µM
CACGAUGAAUUCUCUAGGAGUGAUGUUUUUCGAGGACCGGUACGGCCGCCACUCGGACGACGAGCGUGGUAGCGGGCUGAAGACU [iuullin]	0.521 µM	0.205 µM	1.12 µM	0.674 µM	0.771 µM
CAGACCACAGAGUGAUGUUCUGUGUCCGAAGGAGCGCGCGAGAGCGCAGGUAGGUCGCGGAUACAGUUGACGUACCUUCAAGACA [Arg A Ex t3]	0.193 µM	0.179 µM	0.205 µM	0.23 µM	0.219 µM
CAGAUAACCUAGGAUACCAGCGUCGCUGACAGGUCGCUGGAGAAGUACAGUGAUGUUGUGCGCCCUUGGCAGCCUGUUUACACAG [theeternabot_exclusion_KL_Theo_B_32]	0.255 µM	0.204 µM	0.223 µM	0.207 µM	0.198 µM

Sequence	apparent KD of K4 kissing-loop reporter (input ligand: FMN 200 uM)	apparent KD of K4 kissing-loop reporter (input ligand: arginine 13.2 mM)	apparent KD of K4 kissing-loop reporter (input ligand: none)	apparent KD of K4 kissing-loop reporter [1]	apparent KD of K4 kissing-loop reporter [2]
CAGCAGAGUGAUGUUCUGCUUACUGCGGAUACCAGCUUUGCCAGAGGCCCUUGGCAGCCGGGCGGCUCAGUGAUGUUGGGUUGUU [Same State Theophylline A GF 14]	0.234 µM	0.14 µM	0.186 µM	0.208 µM	0.167 µM
CAGCGGAGUGAUGUUCUGCUUACUCCGGAUACCAGCUUCGCCAGAGGCCCUUGGCAGCCGGGCGGCUCAGUGAUGUUGGGUUGCU [Same State Theophylline A GF 16]	0.934 µM	0.532 µM	0.87 µM	0.979 µM	0.765 µM
CAGGUCACAGAGUGAUGUUCUGUGUCCGAAGGAGCGAUGGUCGCAUCAGGUAGGUCGCGGAUACAGUUGAAGUCCUAUCUAGACG [#10 K4 Arginine A Exclusion]	0.143 µM	0.111 µM	0.119 µM	0.123 µM	0.134 µM
CAUACGCAUGGAGGAUAUGAGAUUUCUCAUAUUAUUGUUUAUUCUCAGUGAUGUUGGGAUUUAAACUCAGAAGGCCAUGUGUAUG [Ex FMN B 9]	0.273 µM	0.124 µM	0.138 µM	0.137 µM	0.132 µM
CAUACUUGCCGACCGCGGCACGCUAGUGAUACCAGUAACACCGUCUACCCUUGGCAGCACGAGAGAGUGAUGUUUUCAGCAGCCA [theeternabot_sameState_KL_Theo_A_3]	1.03 µM	0.722 µM	0.982 µM	0.736 µM	0.857 µM
CAUAGGAAACUAUGUAUCUCUCUGACUGAAGGAGCGCGUGAAAACGCAGGUAGGUCGCAGAAUUUAACAGAGAGUGAUGUUCUCU [Ex Arginine A K4 9]	0.31 µM	0.259 µM	0.319 µM	0.277 µM	0.258 µM
CAUAGGAAACUAUGUAUCUCUCUUACUGAAGGAGCGCGUGAAAACGCAGGUAGGUCGCAGAAUUUAAUAGAGAGUGAUGUUCUCA [Ex Arginine A K4 6]	0.393 µM	0.332 µM	0.496 µM	0.513 µM	0.473 µM
CAUAUUUCGGCGGCCGCCACUGACCAUAGCCUUCGAUGGCCAGUGAUGUUGGCCUCUGGCUCUAACAGGACCGGGCCGAAUUGUG [Uslaxe]	0.239 µM	0.137 µM	0.198 µM	0.145 µM	0.116 µM
CAUCCUACACCUCAAGCAGUGAUGUUGCUACGAGGACCGGUACGGCCGCCACUCGUUUAAGCAUGGAUAUUAGCUGUGCUGACUA [theeternabot_exclusion_KL_Trp_A_16]	0.468 µM	0.458 µM	0.461 µM	0.576 µM	0.439 µM
CAUGUGUCUGGAAGGAGCGCGGGUUGGUUAAACACUGUCGCGGGCCAGUGAUGUUGGAAUCCGCAGGUAGGUCGCCAGCCACUUG [Araton]	0.284 µM	0.476 µM	0.35 µM	0.533 µM	0.46 µM
CAUUCUAAAUGCAGUGAUGUUGCAACUGAUACCAGUAUCGAAAGAUACCCUUGGCAGCGGAAAACCGCUACGUUUUUUUAGAAUG [Ex Theophylline A K4 23]	0.264 µM	0.369 µM	0.352 µM	0.438 µM	0.243 µM
CCACUAUUCUUGUCGGAGUGAUGUUCCGAUACCAGCAUAGAGAUGUGCCCUUGGCAGCGGUCUAUUCUACGCCCGUCUAUUUCAA [Somari]	0.165 µM	0.125 µM	0.135 µM	0.157 µM	0.148 µM
CCAGGUGGAAAAGGAUAUCUAGGAGUGAUGUUCCAUAUGAAAUUAGUUUAUCACCAAACGUCGACCAGAGAAGGUUUCCCAAUUU [theeternabot_exclusion_KL_FMN_B_31]	0.246 µM	0.252 µM	0.287 µM	0.489 µM	0.254 µM
CCAUAUUCGUCGGCCGCCACUAUAAGCCAUCAUACAUUGGCUCUGUGAAAGUGAUGUUUUCUUGAUAGGACCGGGACUGUCAGCA [theeternabot_sameState_KL_Trp_B_24]	0.975 µM	0.739 µM	1.02 µM	0.903 µM	0.646 µM
CCAUCGCUAUUCGAUACCAGCCAAGAGGUCUUUGGCCUCUUAUUGGAGUGAUGUUCCAUUGGCCCUUGGCAGCGAAUAGUGAUGG [Theophylline B K4 17]	0.356 µM	0.192 µM	0.343 µM	0.541 µM	0.275 µM
CCAUCGCUAUUCGAUACCAGCUACUUAGUGAUGUUAAGUUAAAAUCCACUGUAGGUGGAAAGCCCUUGGCAGCGAAUAGUGAUGG [Theophylline B K4 23]	0.235 µM	0.189 µM	0.205 µM	0.117 µM	0.203 µM
